Residue numbers refer to the chain shown, from its start. Names may count otherwise.

One may read the Kd as the constant that tells how readily two partners part at equilibrium. A low value points to higher affinity.

Test in all cases: fluorescence polarisation
In general terms: Fluorescence polarisation rises when a labelled molecule tumbles more slowly, as on binding a larger partner.

In one assay the target is T1, SipD^t V157K (Salmonella, UniProt Q56026 101-343, V157K).
T1 sequence: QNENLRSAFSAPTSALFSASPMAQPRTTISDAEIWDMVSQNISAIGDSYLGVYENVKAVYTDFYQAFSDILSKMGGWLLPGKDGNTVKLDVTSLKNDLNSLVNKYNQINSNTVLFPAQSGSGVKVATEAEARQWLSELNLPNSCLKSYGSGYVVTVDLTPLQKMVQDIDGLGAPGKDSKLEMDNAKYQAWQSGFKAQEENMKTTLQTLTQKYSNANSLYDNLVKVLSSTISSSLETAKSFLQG

In assay [1] the target is T2, SipD^t (truncated form of SipD lacking the N-terminal alpha-helical hairpin, residues 101-343) (Salmonella, UniProt Q56026 101-343).
T2 sequence: T1 sequence with K57V

The target in a further assay is T3, SipD^t V323K (Salmonella, UniProt Q56026 101-343, V323K).
T3 sequence: T1 sequence with K57V, V223K

The next assay concerns the target T4, SipD^t S148E (Salmonella, UniProt Q56026 101-343, S148E).
T4 sequence: T1 sequence with S48E, K57V

A further assay addresses T5, SipD^t D320R (Salmonella, UniProt Q56026 101-343, D320R).
T5 sequence: T1 sequence with K57V, D220R

In a further assay the target is T6, SipD^t S313E (Salmonella, UniProt Q56026 101-343, S313E).
T6 sequence: T1 sequence with K57V, S213E

B1: PrgI V65A/V67A/L31C labelled with Alexa Fluor 488-C5-maleimide (natural protein)
chain: MATPWSGYLDDVSAKFDTGVDNLQTQVTEACDKLAAKPSDPALLAAYQSKLSEYNLYRNAQSNTAKAFKDIDAAIIQNFR
modifications: Alexa Fluor 488-C5-maleimide on the cysteine of L31C
On to B1, for which the binding result with SipD^t V157K, with SipD^t V323K, in the assay with SipD^t D320R and in the assay with SipD^t S313E was “binds” each time. Further, the Kd in assay [1] was determined as 108 ± 10 µM; with SipD^t S148E, 189 ± 20 µM.

The record behind these values is article PMC4108505 (Journal of molecular biology, 2014).
